Drawing on the Human Domainome abundance scans (Beltran et al. 2025), this text covers abundance fitness for 96 substances.

± gives the uncertainty stated by the source.

A short description of this series: abundance fitness (aPCA) (normalised: wild type 0, dead -1); higher = more abundant; growth selection in yeast, the domain comes from the species named. The conditions noted are these: Homo sapiens.
Consider “Scaffold attachment factor B1 R29Q, Q15424”, for which the abundance fitness is -0.222 ± 0.089. The value for “Scaffold attachment factor B1 R29S, Q15424” was -0.189 ± 0.063. The value for “Scaffold attachment factor B1 R29T, Q15424” was -0.141 ± 0.062; that for “Scaffold attachment factor B1 R29V, Q15424” was -0.08 ± 0.059. For “Scaffold attachment factor B1 R29Y, Q15424” the value was -0.056 ± 0.076; for “Scaffold attachment factor B1 R30A, Q15424”, -0.289 ± 0.066. Regarding “Scaffold attachment factor B1 R30C, Q15424”, the abundance fitness was -0.409 ± 0.1. For “Scaffold attachment factor B1 R30D, Q15424” the value was -0.384 ± 0.092; for “Scaffold attachment factor B1 R30E, Q15424”, -0.252 ± 0.06; for “Scaffold attachment factor B1 R30G, Q15424”, -0.31 ± 0.061. For “Scaffold attachment factor B1 R30H, Q15424” the value was -0.16 ± 0.063; for “Scaffold attachment factor B1 R30I, Q15424”, -0.33 ± 0.073. “Scaffold attachment factor B1 R30K, Q15424”: the abundance fitness was -0.037 ± 0.066. The substance “Scaffold attachment factor B1 R30L, Q15424” registered an abundance fitness of -0.218 ± 0.051. The value for “Scaffold attachment factor B1 R30M, Q15424” was -0.206 ± 0.077; that for “Scaffold attachment factor B1 R30N, Q15424” was -0.411 ± 0.1. Take “Scaffold attachment factor B1 R30P, Q15424”: the abundance fitness is -0.545 ± 0.094.

The substance “Scaffold attachment factor B1 R30Q, Q15424” displayed an abundance fitness of -0.25 ± 0.082. For “Scaffold attachment factor B1 R30S, Q15424” the value was -0.133 ± 0.062; for “Scaffold attachment factor B1 R30V, Q15424”, -0.493 ± 0.052. For “Scaffold attachment factor B1 R30W, Q15424” the value was -0.444 ± 0.053; for “Scaffold attachment factor B1 R30Y, Q15424”, -0.383 ± 0.086.

Regarding “Scaffold attachment factor B1 R35A, Q15424”, the abundance fitness was -0.112 ± 0.059.

Regarding “Scaffold attachment factor B1 R35C, Q15424”, the abundance fitness was -0.4 ± 0.073. For “Scaffold attachment factor B1 R35D, Q15424” the value was -0.12 ± 0.08. Turning to “Scaffold attachment factor B1 R35E, Q15424”, the abundance fitness was -0.195 ± 0.083.

“Scaffold attachment factor B1 R35F, Q15424” showed an abundance fitness of -0.59 ± 0.082. For “Scaffold attachment factor B1 R35H, Q15424” the value was -0.475 ± 0.089. “Scaffold attachment factor B1 R35I, Q15424” had an abundance fitness of -0.556 ± 0.08. The value for “Scaffold attachment factor B1 R35K, Q15424” was -0.217 ± 0.083. For “Scaffold attachment factor B1 R35L, Q15424” the value was -0.316 ± 0.063; for “Scaffold attachment factor B1 R35M, Q15424”, -0.147 ± 0.072; for “Scaffold attachment factor B1 R35P, Q15424”, -0.288 ± 0.081. The value for “Scaffold attachment factor B1 R35Q, Q15424” was -0.136 ± 0.077; that for “Scaffold attachment factor B1 R35S, Q15424” was -0.136 ± 0.068; that for “Scaffold attachment factor B1 R35T, Q15424” was 0.014 ± 0.064. Take “Scaffold attachment factor B1 R35V, Q15424”: the abundance fitness is -0.28 ± 0.054. For “Scaffold attachment factor B1 R35W, Q15424” the value was -0.645 ± 0.079; for “Scaffold attachment factor B1 R40A, Q15424”, -0.272 ± 0.065; for “Scaffold attachment factor B1 R40C, Q15424”, -0.642 ± 0.085.

The substance “Scaffold attachment factor B1 R40D, Q15424” returned an abundance fitness of -0.642 ± 0.096. “Scaffold attachment factor B1 R40F, Q15424” registered an abundance fitness of -0.822 ± 0.08.

With “Scaffold attachment factor B1 R40G, Q15424”, the abundance fitness was -0.732 ± 0.056. For “Scaffold attachment factor B1 R40I, Q15424” the value was -0.179 ± 0.07; for “Scaffold attachment factor B1 R40K, Q15424”, -0.416 ± 0.079. The value for “Scaffold attachment factor B1 R40L, Q15424” was -0.219 ± 0.055; that for “Scaffold attachment factor B1 R40M, Q15424” was -0.329 ± 0.075; that for “Scaffold attachment factor B1 R40N, Q15424” was -0.786 ± 0.12. For “Scaffold attachment factor B1 R40P, Q15424” the value was -0.763 ± 0.074; for “Scaffold attachment factor B1 R40Q, Q15424”, -0.152 ± 0.06. The substance “Scaffold attachment factor B1 R40S, Q15424” had an abundance fitness of -0.353 ± 0.062. For “Scaffold attachment factor B1 R40T, Q15424” the value was -0.319 ± 0.073; for “Scaffold attachment factor B1 R40V, Q15424”, -0.123 ± 0.067; for “Scaffold attachment factor B1 R40Y, Q15424”, -0.549 ± 0.077. For “Scaffold attachment factor B1 R44A, Q15424” the value was -0.029 ± 0.061; for “Scaffold attachment factor B1 R44D, Q15424”, -0.156 ± 0.1.

For “Scaffold attachment factor B1 R44E, Q15424”, the abundance fitness was -0.121 ± 0.091. The value for “Scaffold attachment factor B1 R44F, Q15424” was -0.27 ± 0.081; that for “Scaffold attachment factor B1 R44G, Q15424” was -0.096 ± 0.064. The value for “Scaffold attachment factor B1 R44H, Q15424” was -0.202 ± 0.072.

“Scaffold attachment factor B1 R44I, Q15424” returned an abundance fitness of -0.13 ± 0.071. For “Scaffold attachment factor B1 R44L, Q15424” the value was -0.107 ± 0.053; for “Scaffold attachment factor B1 R44P, Q15424”, -0.715 ± 0.075; for “Scaffold attachment factor B1 R44Q, Q15424”, -0.074 ± 0.071. The value for “Scaffold attachment factor B1 R44S, Q15424” was -0.096 ± 0.065. For “Scaffold attachment factor B1 R44T, Q15424” the value was -0.024 ± 0.062. “Scaffold attachment factor B1 R44V, Q15424” registered an abundance fitness of -0.092 ± 0.054. The value for “Scaffold attachment factor B1 R46A, Q15424” was -0.745 ± 0.069; that for “Scaffold attachment factor B1 R46C, Q15424” was -0.445 ± 0.1. As for “Scaffold attachment factor B1 R46D, Q15424”, the abundance fitness was -0.832 ± 0.071. Regarding “Scaffold attachment factor B1 R46E, Q15424”, the abundance fitness is -0.954 ± 0.1. For “Scaffold attachment factor B1 R46F, Q15424” the value was -0.545 ± 0.069; for “Scaffold attachment factor B1 R46G, Q15424”, -0.84 ± 0.053; for “Scaffold attachment factor B1 R46H, Q15424”, -0.423 ± 0.12. For “Scaffold attachment factor B1 R46I, Q15424” the value was -0.642 ± 0.072; for “Scaffold attachment factor B1 R46K, Q15424”, -0.602 ± 0.11; for “Scaffold attachment factor B1 R46L, Q15424”, -0.491 ± 0.063.

“Scaffold attachment factor B1 R46M, Q15424” returned an abundance fitness of -0.384 ± 0.1. The value for “Scaffold attachment factor B1 R46N, Q15424” was -0.819 ± 0.15; that for “Scaffold attachment factor B1 R46P, Q15424” was -0.937 ± 0.12; that for “Scaffold attachment factor B1 R46Q, Q15424” was -0.734 ± 0.089. For “Scaffold attachment factor B1 R46S, Q15424” the value was -0.763 ± 0.068; for “Scaffold attachment factor B1 R46T, Q15424”, -0.845 ± 0.11. As to “Scaffold attachment factor B1 R46V, Q15424”, the abundance fitness was -0.797 ± 0.074. Consider “Scaffold attachment factor B1 R46W, Q15424”, for which the abundance fitness is -0.8 ± 0.062.

In turn, “Scaffold attachment factor B1 R46Y, Q15424” came in with an abundance fitness of -0.463 ± 0.064. For “Scaffold attachment factor B1 R60A, Q15424” the value was -0.22 ± 0.054; for “Scaffold attachment factor B1 R60C, Q15424”, -0.676 ± 0.1; for “Scaffold attachment factor B1 R60D, Q15424”, -0.659 ± 0.13. The value for “Scaffold attachment factor B1 R60E, Q15424” was -0.551 ± 0.089; that for “Scaffold attachment factor B1 R60F, Q15424” was -0.801 ± 0.053.

“Scaffold attachment factor B1 R60G, Q15424” yielded an abundance fitness of -0.464 ± 0.075.

“Scaffold attachment factor B1 R60I, Q15424” came in with an abundance fitness of -0.551 ± 0.11. For “Scaffold attachment factor B1 R60K, Q15424” the value was -0.099 ± 0.065; for “Scaffold attachment factor B1 R60L, Q15424”, -0.335 ± 0.053; for “Scaffold attachment factor B1 R60M, Q15424”, -0.38 ± 0.065.
